From PMC4484599 come the findings set out here.

The target of this data set is Sp-1 human recombinant protein (Promega) (Homo sapiens, UniProt P08047 1-785). Kind of data set: EMSA.
Sequence of Sp-1 human recombinant protein (Promega) (P08047 whole entry): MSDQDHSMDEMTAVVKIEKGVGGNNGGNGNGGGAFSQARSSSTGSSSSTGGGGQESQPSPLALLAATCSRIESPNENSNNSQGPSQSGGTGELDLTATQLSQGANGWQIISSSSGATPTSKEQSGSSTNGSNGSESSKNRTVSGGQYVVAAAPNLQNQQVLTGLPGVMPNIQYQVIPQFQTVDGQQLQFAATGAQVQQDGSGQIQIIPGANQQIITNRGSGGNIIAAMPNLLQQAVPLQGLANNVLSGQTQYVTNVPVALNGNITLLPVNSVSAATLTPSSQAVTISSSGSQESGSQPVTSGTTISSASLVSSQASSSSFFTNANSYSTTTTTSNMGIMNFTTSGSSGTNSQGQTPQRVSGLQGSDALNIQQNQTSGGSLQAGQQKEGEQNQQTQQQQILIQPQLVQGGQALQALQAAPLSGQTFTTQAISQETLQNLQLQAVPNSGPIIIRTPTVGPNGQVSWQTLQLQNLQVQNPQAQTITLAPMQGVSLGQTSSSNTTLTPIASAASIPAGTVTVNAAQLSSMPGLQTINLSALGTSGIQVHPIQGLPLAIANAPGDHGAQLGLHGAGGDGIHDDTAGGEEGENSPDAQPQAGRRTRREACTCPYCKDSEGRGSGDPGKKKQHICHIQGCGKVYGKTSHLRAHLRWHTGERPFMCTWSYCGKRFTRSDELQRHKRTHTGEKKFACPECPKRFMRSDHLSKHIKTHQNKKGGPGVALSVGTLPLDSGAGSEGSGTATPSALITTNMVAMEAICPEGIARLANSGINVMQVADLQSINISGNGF

B1: Sp-1 probe (ER alpha promoter) (dsDNA)
DNA 1: TCGTGCGCCCCCGCCCCCTGGCCGTG
DNA 2: CACGGCCAGGGGGCGGGGGCGCACGA
For B1, the binding result is “binds”.
